From patent publication US20040146507A1

Molecular target: T1, rhesus CD11a (rhesus) (UniProt H9Z8N3)
T1 sequence: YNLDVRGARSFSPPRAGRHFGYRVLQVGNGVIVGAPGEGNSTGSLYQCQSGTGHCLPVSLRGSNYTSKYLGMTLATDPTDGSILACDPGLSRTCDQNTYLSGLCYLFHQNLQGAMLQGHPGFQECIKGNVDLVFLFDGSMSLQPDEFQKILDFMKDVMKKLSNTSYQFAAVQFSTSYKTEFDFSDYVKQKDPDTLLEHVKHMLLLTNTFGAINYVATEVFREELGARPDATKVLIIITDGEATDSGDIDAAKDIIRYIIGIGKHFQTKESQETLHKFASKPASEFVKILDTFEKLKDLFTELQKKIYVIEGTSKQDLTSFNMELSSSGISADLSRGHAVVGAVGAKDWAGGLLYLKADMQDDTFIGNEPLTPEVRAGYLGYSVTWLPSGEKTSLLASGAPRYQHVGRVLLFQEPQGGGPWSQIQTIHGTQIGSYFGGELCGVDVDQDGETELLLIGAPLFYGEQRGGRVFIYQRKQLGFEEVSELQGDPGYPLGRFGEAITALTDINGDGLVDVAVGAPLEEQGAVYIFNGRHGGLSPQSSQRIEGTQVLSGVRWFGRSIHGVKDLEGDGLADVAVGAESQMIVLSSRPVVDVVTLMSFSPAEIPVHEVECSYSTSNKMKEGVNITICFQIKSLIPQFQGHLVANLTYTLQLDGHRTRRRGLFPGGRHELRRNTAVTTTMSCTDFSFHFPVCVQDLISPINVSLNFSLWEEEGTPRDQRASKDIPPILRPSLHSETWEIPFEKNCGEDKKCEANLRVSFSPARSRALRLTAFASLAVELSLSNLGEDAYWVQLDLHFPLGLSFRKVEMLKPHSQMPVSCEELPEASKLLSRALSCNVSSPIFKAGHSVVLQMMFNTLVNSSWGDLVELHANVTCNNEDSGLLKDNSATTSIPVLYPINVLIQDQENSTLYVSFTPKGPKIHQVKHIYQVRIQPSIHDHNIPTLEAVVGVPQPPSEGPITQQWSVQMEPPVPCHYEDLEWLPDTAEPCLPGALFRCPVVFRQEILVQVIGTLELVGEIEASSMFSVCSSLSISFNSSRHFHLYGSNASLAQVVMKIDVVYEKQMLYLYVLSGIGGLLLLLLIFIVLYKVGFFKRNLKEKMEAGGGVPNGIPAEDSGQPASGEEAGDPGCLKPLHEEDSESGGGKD
Assay: rhesus PBL binding

B1: HuIgG1 mutant SerL52Ala (antibody, V domains shown)
VH: EVQLVESGGGLVQPGGSLRLSCAASGYSFTGHWMNWVRQAPGKGLEWVGMIHPSDSETRYNQKFKDRFTISVDKSKNTLYLQMNSLRAEDTAVYYCARGIYFYGTTYFDYWGQGTLVTVSS
VL: DIQMTQSPSSLSASVGDRVTITCRASKTISKYLAWYQQKPGKAPKLLIYSGATLQSGVPSRFSGSGSGTDFTLTISSLQPEDFATYYCQQHNEYPLTFGQGTKVEIKR
Var.EC50/HuIgG1 EC50: 13.3
